Measurements as given in PMC11993163, “Structure-function studies of a nucleoplasmin isoform from Plasmodium falciparum” (The Journal of Biological Chemistry, 2025).

How the values were obtained:
assembled H2A/H2B dimer [1] = target: T1, assembled H2A/H2B dimer (UniProt P06897 1-130; P02281 1-126); test: ITC; settings: both partners purified
assembled H3/H4 tetramer [2] = target: T2, assembled H3/H4 tetramer (UniProt P84233 1-136; P62799 1-103); test: ITC; settings: both partners purified
T2 construct: core histone H4, codon-optimized construct in pET21a(+), gift of Dr Curtis A. Davey, expressed without a fusion tag; the species of the histones is told nowhere; copies: 2 + 2

[3] = target: the molecule itself; test: AUC; sedimentation velocity, Optima AUC, absorbance at 280 nm 0.2-0.5, continuous size distribution (SEDFIT); PfNPM proteins alone and their histone complexes
assembled H2A/H2B dimer [4] = target: T1, assembled H2A/H2B dimer; test: AUC; settings: both partners purified
assembled H3/H4 tetramer [5] = target: T2, assembled H3/H4 tetramer; test: AUC; settings: both partners purified
[6] = target: the molecule itself; test: crystal structure; PfNPM NTD at 57 mg/ml, 0.2 M sodium malonate pH 5.0, 20% PEG3350; 3.25 Å, space group P3(1)21, five chains in the asymmetric unit

B1: PfNPM A1 (residues 1-110, up to A1 acidic tract) (domain or fragment, Plasmodium falciparum, UniProt C0H4U4 1-110, looked up)
chain: MFYGKVVKPDETVVPEVKDGYSVIHLSRACLNNPEHEGKIYVQVEDGNGCYNICCLQKNVCEDTPLDIFLMLDNDVKIKTSGSSNEVHIVGYYEVSFGQDNLDEDEDEFE
notes: PfNPM, nucleoplasmin isoform of Plasmodium falciparum, PlasmoDB PF3D7_0813300, UniProtKB C0H4U4, residues 1-110 (NTD and A1 acidic tract); pET28a(+) NcoI/XhoI, noncleavable C-terminal hexa-histidine tag; Pentamer by SV-AUC and SAXS; also called PfNPM (1-110); not shown: His6, C-terminal, kept
Assembled H2A/H2B dimer [1]
  Kd: 1010 ± 68.6 nM
  stoichiometry N: 1
Assembled H3/H4 tetramer [2]
  Kd: 58.5 ± 1.76 nM
  stoichiometry N: 1
[3]
  stoichiometry N: 5
Assembled H2A/H2B dimer [4]
  stoichiometry N: 1 PfNPM pentamer : H2A/H2B dimer
Assembled H3/H4 tetramer [5]
  stoichiometry N: 1 PfNPM pentamer : H3/H4 tetramer

B2: PfNPM NTD (Plasmodium falciparum nucleoplasmin N-terminal core domain, residues 1-98) (domain or fragment, UniProt C0H4U4 1-98, looked up)
chain: MFYGKVVKPDETVVPEVKDGYSVIHLSRACLNNPEHEGKIYVQVEDGNGCYNICCLQKNVCEDTPLDIFLMLDNDVKIKTSGSSNEVHIVGYYEVSFG
notes: PfNPM, nucleoplasmin isoform of Plasmodium falciparum, PlasmoDB PF3D7_0813300, UniProtKB C0H4U4, residues 1-98 of the 315-residue full length; Cloned into pET28a(+) between NcoI and XhoI with a noncleavable C-terminal hexa-histidine tag; Pentamer by crystal structure, SV-AUC and SAXS; also called PfNPM NTD (1-98); not shown: His6, C-terminal, kept
[6]
  stoichiometry N: 5

B3: PfNPM A3 (residues 1-170, up to A3 acidic tract) (domain or fragment, Plasmodium falciparum, UniProt C0H4U4 1-170, looked up)
chain: MFYGKVVKPDETVVPEVKDGYSVIHLSRACLNNPEHEGKIYVQVEDGNGCYNICCLQKNVCEDTPLDIFLMLDNDVKIKTSGSSNEVHIVGYYEVSFGQDNLDEDEDEFEDEFDNDEVRMLTKKNTLKNSLSNGISKRKKNLENNEDDETNVGRNDEDDDDEDDEDDEDE
notes: PfNPM, nucleoplasmin isoform of Plasmodium falciparum, PlasmoDB PF3D7_0813300, UniProtKB C0H4U4, residues 1-170 (NTD and acidic tracts A1 to A3); pET28a(+) NcoI/XhoI, noncleavable C-terminal hexa-histidine tag; Pentamer by SV-AUC, SAXS and cryo-EM 2D class averages; also called PfNPM (1-170); not shown: His6, C-terminal, kept
Assembled H2A/H2B dimer [1]
  Kd: 1000 ± 68.2 nM
  stoichiometry N: 1
Assembled H3/H4 tetramer [2]
  Kd: 38.9 ± 2.2 nM
  stoichiometry N: 1
[3]
  stoichiometry N: 5
Assembled H2A/H2B dimer [4]
  stoichiometry N: 1 PfNPM pentamer : H2A/H2B dimer
Assembled H3/H4 tetramer [5]
  stoichiometry N: 1 PfNPM pentamer : H3/H4 tetramer
